Results taken from patent publication US20240025959A1 (UNIVERSITY OF SOUTHERN CALIFORNIA, published 2024).

T1: ULK1 (human, UniProt O75385 1-1050)
T1 construct: also called HA-ULK1
T1 sequence (looked up): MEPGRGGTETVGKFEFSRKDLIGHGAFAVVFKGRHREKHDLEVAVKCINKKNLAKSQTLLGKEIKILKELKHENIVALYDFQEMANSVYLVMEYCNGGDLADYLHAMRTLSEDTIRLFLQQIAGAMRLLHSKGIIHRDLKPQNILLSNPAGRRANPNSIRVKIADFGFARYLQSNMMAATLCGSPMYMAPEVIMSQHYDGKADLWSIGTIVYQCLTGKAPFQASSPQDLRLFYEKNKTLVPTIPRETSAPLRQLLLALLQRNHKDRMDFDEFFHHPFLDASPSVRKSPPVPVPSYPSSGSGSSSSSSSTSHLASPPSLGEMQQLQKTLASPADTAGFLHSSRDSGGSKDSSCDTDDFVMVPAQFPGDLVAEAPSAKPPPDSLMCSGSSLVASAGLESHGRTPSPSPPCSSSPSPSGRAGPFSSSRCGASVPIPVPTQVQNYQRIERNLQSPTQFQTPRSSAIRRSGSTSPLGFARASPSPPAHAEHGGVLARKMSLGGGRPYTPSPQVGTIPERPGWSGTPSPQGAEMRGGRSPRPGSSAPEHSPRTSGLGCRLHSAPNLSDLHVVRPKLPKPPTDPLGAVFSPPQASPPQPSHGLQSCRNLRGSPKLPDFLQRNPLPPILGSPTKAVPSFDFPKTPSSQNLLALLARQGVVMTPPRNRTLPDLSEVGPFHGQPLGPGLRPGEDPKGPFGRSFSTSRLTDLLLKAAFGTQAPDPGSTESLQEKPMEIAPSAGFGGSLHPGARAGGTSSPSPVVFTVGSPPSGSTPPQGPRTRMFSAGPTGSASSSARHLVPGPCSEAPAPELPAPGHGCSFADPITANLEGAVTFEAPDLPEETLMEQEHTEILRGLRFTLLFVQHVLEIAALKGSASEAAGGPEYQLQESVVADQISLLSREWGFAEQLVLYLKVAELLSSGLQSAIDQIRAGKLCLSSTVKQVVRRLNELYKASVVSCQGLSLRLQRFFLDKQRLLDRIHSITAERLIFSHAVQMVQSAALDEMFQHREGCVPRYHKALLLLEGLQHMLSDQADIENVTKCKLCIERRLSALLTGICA

T2: ATG9A (human) (human, UniProt Q7Z3C6 1-839)
T2 construct: Transmembrane protein; co-IP from RIPA lysates; Tagged and endogenous human forms kept under one id; also called Flag-ATG9A; HA-ATG9A
T2 sequence (looked up): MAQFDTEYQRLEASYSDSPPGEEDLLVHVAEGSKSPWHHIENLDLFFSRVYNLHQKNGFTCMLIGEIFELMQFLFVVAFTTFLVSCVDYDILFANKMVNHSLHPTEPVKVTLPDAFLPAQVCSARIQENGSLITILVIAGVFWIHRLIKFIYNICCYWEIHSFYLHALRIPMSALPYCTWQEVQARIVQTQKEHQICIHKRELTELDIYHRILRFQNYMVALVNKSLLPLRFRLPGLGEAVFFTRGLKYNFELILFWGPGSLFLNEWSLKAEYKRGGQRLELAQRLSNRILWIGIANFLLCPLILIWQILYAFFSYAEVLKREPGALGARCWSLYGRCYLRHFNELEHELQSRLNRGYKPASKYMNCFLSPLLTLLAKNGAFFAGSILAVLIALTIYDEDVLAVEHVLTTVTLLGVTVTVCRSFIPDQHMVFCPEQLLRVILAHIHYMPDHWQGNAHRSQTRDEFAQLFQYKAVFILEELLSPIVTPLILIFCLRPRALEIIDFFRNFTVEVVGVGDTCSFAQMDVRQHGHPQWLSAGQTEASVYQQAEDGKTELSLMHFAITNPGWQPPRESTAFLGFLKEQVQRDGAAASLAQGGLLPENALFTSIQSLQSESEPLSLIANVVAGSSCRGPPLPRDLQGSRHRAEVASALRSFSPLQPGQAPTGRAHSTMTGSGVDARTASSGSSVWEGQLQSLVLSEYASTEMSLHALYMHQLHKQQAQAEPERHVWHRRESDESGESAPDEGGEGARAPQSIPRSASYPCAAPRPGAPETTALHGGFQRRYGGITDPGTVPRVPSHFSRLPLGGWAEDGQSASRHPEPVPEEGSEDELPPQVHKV

T3: ATG13 (human, UniProt O75143 1-517, limits assumed)
T3 sequence (looked up): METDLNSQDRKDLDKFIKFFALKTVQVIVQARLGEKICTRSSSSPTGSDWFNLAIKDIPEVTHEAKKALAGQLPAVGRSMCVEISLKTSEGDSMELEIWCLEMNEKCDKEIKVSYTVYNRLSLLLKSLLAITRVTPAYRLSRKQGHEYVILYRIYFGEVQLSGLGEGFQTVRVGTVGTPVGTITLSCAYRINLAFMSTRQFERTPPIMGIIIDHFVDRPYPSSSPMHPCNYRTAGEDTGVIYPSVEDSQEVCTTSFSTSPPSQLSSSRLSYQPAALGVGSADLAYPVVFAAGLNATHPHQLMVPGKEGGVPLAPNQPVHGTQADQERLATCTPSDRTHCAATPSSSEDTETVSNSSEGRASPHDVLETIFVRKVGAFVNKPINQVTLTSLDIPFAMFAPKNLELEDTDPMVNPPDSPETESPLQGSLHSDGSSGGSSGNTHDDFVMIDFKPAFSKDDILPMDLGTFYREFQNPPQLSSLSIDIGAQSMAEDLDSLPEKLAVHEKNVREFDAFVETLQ

T4: WIPI1 (human, UniProt Q5MNZ9 1-446)
T4 sequence (looked up): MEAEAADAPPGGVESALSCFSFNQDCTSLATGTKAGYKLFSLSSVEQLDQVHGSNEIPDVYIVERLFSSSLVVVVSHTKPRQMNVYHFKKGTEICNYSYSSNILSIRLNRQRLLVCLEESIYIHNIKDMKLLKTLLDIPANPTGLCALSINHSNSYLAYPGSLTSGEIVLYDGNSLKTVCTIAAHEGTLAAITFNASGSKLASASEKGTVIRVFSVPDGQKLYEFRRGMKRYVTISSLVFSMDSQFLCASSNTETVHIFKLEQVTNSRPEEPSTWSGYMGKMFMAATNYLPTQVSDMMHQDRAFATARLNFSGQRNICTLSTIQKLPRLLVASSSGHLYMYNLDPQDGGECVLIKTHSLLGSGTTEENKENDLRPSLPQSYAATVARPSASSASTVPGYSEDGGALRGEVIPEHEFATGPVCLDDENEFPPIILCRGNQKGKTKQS

B1: ERK1 (enzyme, UniProt P27361 1-379, looked up)
chain: MAAAAAQGGGGGEPRRTEGVGPGVPGEVEMVKGQPFDVGPRYTQLQYIGEGAYGMVSSAYDHVRKTRVAIKKISPFEHQTYCQRTLREIQILLRFRHENVIGIRDILRASTLEAMRDVYIVQDLMETDLYKLLKSQQLSNDHICYFLYQILRGLKYIHSANVLHRDLKPSNLLINTTCDLKICDFGLARIADPEHDHTGFLTEYVATRWYRAPEIMLNSKGYTKSIDIWSVGCILAEMLSNRPIFPGKHYLDQLNHILGILGSPSQEDLNCIINMKARNYLQSLPSKTKVAWAKLFPKSDSKALDLLDRMLTFNPNKRITVEEALAHPYLEQYYDPTDEPVAEEPFTFAMELDDLPKERLKELIFQETARFQPGVLEAP
notes: also called Mapk3
B2: Beclin 2 (human, full length) (other)
chain: MSSIRFLCQRCHQALKLSGSSESRSLPAAPAPTSGQAEPGDTREPGVTTREVTDAEEQQDGASSRSPPGDGSVSKGHANIFTLLGELGAMHMLSSIQKAAGDIFDIVSGQAVVDHPLCEECTDSLLEQLDIQLALTEADSQNYQRCLETGELATSEDEAAALRAELRDLELEEARLVQELEDVDRNNARAAADLQAAQAEAAELDQQERQHYRDYSALKRQQLELLDQLGNVENQLQYARVQRDRLKEINCFTATFEIWVEGPLGVINNFRLGRLPTVRVGWNEINTAWGQAALLLLTLANTIGLQFQRYRLIPCGNHSYLKSLTDDRTELPLFCYGGQDVFLNNKYDRAMVAFLDCMQQFKEEAEKGELGLSLPYGIQVETGLMEDVGGRGECYSIRTHLNTQELWTKALKFMLINFKWSLIWVASRYQK
notes: All tagged and endogenous human forms are kept under this one id; the form used is named under assay; also called BECN2; Flag-Beclin 2

Legend:
[1] = target: B2; test: co-IP with anti-Flag beads and immunoblot; 293T cells co-transfected with Flag-Beclin 2 and an HA-tagged plasmid (FIG. 8A)
Description: (§1) The secondary antibody (Veriblot for IP detection reagent HRP) that only recognized native IgG but not denatured IgG was applied for immunoblotting of proteins in immunoprecipitates. For immunoprecipitation of Flag-tagged proteins, cell lysates were incubated with anti-Flag beads (Sigma) at 4° C. overnight. The beads were washed four times with RIPA lysis buffer, and immunoprecipitates were eluted with 2×SDS loading buffer. Immunoblotting was performed by loading the samples on SDS-PAGE gels, conducting electrophoresis, transferring the samples to PVDF membranes (Bio-Rad), and then incubating the membranes with the indicated antibodies. For all immunoblots, the LumiGLO Chemiluminescent Substrate System from KPL (Gaithersburg, MD) was used for protein detection.

ULK1 = target: T1, ULK1; test: co-IP with anti-Flag beads and immunoblot; 293T cells co-transfected with Flag-Beclin 2 and HA-ULK1, complete or starvation medium (FIG. 10B)
Description: as §1

ATG9A (human) = target: T2, ATG9A (human); test: co-IP with anti-Flag beads and immunoblot; 293T cells co-transfected with HA-Beclin 2 and a Flag-tagged plasmid (FIG. 10A)
FIP200 = target: T5, FIP200 (human, UniProt Q8TDY2 1-1594); test: co-IP and immunoblot in 293T cells, as summed up in the discussion
T5 construct: also called Flag-FIP200; hFIP200

ATG13 = target: T3, ATG13; test: as above
WIPI1 = target: T4, WIPI1; test: endogenous co-IP; 293T cell lysates immunoprecipitated with antibodies against each protein, immunoblot (FIG. 9D)
Description: as §1

ERK5 = ERK5 (UniProt Q13164 1-816); test: co-IP with anti-Flag beads and immunoblot; 293T cells co-transfected with Flag-Beclin 2 and an HA-tagged plasmid (FIG. 8A)
ERK5, sequence (Q13164 whole entry): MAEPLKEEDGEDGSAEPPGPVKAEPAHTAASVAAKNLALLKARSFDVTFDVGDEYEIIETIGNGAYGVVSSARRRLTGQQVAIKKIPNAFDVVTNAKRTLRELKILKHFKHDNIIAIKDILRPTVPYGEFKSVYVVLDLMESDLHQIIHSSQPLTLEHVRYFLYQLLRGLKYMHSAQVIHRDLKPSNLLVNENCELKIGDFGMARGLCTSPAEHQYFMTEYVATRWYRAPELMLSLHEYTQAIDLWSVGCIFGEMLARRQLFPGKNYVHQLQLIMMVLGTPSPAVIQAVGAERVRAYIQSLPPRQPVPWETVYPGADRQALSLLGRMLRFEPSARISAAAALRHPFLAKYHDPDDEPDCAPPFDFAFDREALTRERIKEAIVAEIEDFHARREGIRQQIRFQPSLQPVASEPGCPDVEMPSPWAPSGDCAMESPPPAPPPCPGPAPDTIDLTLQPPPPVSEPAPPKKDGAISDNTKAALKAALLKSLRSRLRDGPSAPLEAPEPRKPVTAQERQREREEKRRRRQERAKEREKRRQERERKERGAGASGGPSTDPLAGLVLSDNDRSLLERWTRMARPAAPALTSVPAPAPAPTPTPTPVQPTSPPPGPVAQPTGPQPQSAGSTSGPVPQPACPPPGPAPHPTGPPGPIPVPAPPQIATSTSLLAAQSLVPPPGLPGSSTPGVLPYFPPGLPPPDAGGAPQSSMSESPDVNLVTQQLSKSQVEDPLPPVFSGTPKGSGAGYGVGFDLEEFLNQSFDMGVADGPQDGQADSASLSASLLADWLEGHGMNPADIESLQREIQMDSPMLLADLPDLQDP
Description: as §1

T5 sequence (Q8TDY2 whole entry): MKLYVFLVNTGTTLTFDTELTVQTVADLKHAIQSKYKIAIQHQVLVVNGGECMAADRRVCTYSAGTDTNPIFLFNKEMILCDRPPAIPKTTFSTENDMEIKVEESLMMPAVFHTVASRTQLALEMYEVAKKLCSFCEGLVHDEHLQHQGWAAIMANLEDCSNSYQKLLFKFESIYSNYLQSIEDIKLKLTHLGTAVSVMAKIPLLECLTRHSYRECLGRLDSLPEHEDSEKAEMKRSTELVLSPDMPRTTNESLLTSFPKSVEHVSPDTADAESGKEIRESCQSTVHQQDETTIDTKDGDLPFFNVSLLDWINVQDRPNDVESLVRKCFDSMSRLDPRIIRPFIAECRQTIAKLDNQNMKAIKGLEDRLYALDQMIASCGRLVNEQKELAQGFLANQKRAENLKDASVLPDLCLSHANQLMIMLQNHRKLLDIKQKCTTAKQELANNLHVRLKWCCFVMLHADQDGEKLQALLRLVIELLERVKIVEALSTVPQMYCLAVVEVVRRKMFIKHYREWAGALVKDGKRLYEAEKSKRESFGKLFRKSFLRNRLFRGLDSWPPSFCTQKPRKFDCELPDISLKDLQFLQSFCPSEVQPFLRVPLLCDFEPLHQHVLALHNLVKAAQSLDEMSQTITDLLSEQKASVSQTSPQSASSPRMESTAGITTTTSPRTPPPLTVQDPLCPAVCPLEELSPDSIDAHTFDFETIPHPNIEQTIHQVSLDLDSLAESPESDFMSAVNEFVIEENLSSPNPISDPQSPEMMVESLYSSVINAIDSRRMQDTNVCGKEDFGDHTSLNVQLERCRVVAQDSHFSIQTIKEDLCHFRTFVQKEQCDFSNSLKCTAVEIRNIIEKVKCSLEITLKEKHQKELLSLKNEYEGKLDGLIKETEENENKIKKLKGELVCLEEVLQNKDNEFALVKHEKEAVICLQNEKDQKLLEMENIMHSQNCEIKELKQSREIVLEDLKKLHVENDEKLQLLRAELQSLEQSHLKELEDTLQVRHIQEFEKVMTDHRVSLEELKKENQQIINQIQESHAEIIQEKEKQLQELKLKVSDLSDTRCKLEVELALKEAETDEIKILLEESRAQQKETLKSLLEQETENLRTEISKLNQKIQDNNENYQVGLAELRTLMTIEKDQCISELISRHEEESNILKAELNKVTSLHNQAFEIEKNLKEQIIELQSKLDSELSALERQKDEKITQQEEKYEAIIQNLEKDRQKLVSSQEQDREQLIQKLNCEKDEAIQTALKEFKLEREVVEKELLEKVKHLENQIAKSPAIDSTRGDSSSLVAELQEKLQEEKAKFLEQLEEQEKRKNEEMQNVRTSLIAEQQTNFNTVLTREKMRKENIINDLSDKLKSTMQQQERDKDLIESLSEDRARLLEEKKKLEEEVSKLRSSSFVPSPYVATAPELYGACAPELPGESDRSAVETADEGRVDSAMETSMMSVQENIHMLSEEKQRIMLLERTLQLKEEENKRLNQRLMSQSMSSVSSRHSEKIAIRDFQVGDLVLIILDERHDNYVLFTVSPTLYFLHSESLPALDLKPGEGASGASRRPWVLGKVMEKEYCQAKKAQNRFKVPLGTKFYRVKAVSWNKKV

binding result [1]	binding result (ULK1)	binding result (ATG9A (human))	binding result (FIP200)	binding result (ATG13)	binding result (WIPI1)	binding result (ERK5)	Binder
no binding							B1
	binds	binds	no binding	no binding	binds	no binding	B2
